The text below walks through data of US20230391876A1 (HANALL BIOPHARMA, published 2023).

The target in assay [1] is T1, shFcRn (soluble human FcRn) (human, UniProt P55899 24-297; P61769 21-119).
T1 construct: extracellular domain; Printed only as 'soluble human FcRn'; also called hFcRn (immobilized on a chip)
Put plainly: SPR, hFcRn immobilized on chip, pH 6.0. In general terms: In SPR one partner is held on a chip, and binding of the other changes the refractive index at the surface.
Description: (§1) Kinetic analysis was performed using a 1:1 Langmuir binding model, and the average KD value was obtained by repeating the analysis 6 times in each condition of pH 6.0 and pH 7.4.
(§2) Chip activation was performed under EDAC/NHS 0.5×, 30 μL/min, and 300 sec conditions. Thereafter, shFcRn was prepared at 2 μg/mL, 250 μL using an acetate buffer (pH 5.5), and immobilization was performed while flowing at 30 μL/min. The reaction was stopped when the immobilization level corresponded to 200 RU to 300 RU. Thereafter, deactivation was performed using ethanolamine at 30 μL/min, 300 sec. […] Sample dilution was performed using 1×PBST (pH 7.4) or 1×PBST (pH 6.0) buffer depending on the analysis pH. In the sample analysis conditions, association was carried out by reaction at 50 μL/min, 200 sec, and dissociation was carried out by reaction at 50 μL/min, 600 sec. Thereafter, reaction was carried out using a glycine buffer (pH 2.0) at 100 μL/min, 18 sec to perform regeneration. For kinetic analysis, samples were prepared and reacted once in three cells to which shFcRn was immobilized. Then three kinetic values were obtained, and then an average KD value was measured. When analyzing reaction signals, interspot-referencing and signals in which only buffer was analyzed were used for a double-referencing.

In assay [2] the target is T1, shFcRn (soluble human FcRn). Description: SPR, shFcRn immobilized on chip, antibody as analyte, pH 6.0.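 Note: kinetics fitted with a 1:1 Langmuir model, association 200 s and dissociation 600 s, samples diluted in PBST, double-referenced signals, values averaged across three shFcRn-coated cells.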
Description: as §1, §2
Assay [3] concerns the target T2, hFcRn on hFcRn-expressing HEK293 cells (human, UniProt P55899 24-365; P61769 21-119).
T2 construct: whole, on cells; also called hFcRn HEK293
Description: FACS on hFcRn HEK293 cells, pH 6.0; head prints 'FACS binding (EC50, nM)', taken as blocking of competitor Alexa488-hIgG1 (Example 4.5). A general note: A flow cytometer gives signals particle by particle.
Description: (§3) 1×10⁷ hFcRn HEK293 cells were seeded into a T75 flask and cultured for 24 hours. After culturing, the cells were removed and placed in a 96 well plate at 1×10⁵ cells for each sample in duplicate. […] After the reaction was completed, it was centrifuged to remove the supernatant. 200 μL of the reaction buffer was added to resuspend the cell pellet, and then the MFI value was measured in a FACS instrument.

Assay [4] concerns the target T2, hFcRn on hFcRn-expressing HEK293 cells. Description: FACS on hFcRn HEK293 cells, 10 nM antibody, pH 7.4.
Description: (§4) The analysis of hFcRn binding using FACS was carried out under two conditions of pH 6.0 and pH 7.4. hFcRn-expressing 1TEK293 (hFcRn HEK293) cells were diluted with the reaction buffer (0.0500 BSA in PBS, pH 6.0 or pH 7.4) and prepared in duplicate in a 96 well plate at 1×10⁵ cells for each sample. In addition, each antibody sample was diluted with the reaction buffer to 10 nM, and then put into a 96 well plate, and incubated at 4° C. for 90 minutes. Thereafter, the plate was centrifuged to remove the supernatant, and then Alexa488-goat anti-hIgG Ab (1:200) was added thereto, and again incubated at 4° C. for 90 minutes. After the reaction was completed, it was centrifuged to remove the supernatant, and 200 μL of the reaction buffer was added to resuspend the cell pellet, and then the MFI value was measured in a FACS instrument.
The target is the same in assay [5]. Put plainly: FACS on hFcRn HEK293 cells, 10 nM antibody, pH 6.0, high concentration sample.
Description: as §4
For assay [6] the target is unchanged. Description: FACS on hFcRn HEK293 cells, pH 6.0, high concentration sample; head prints 'FACS binding (EC50, nM)', taken as blocking of competitor Alexa488-hIgG1 (Example 5.5).
Description: as §3
The evaluation of hFcRn blocking was performed at 0.1 nM, 1 nM, 10 nM, and 100 nM using FACS.
For assay [7] the target is unchanged. Put plainly: FACS on hFcRn HEK293 cells, 10 nM antibody, pH 7.4, high concentration sample.
Description: as §4
Assay [8] has the same target. Put plainly: FACS on hFcRn HEK293 cells, 10 nM antibody, pH 6.0.
Description: as §4
In assay [9] the target is T1, shFcRn (soluble human FcRn). Description: SPR, hFcRn immobilized on chip, pH 7.4.
Description: as §1, §2
Assay [10] shares this target. Put plainly: SPR, shFcRn immobilized on chip, antibody as analyte, pH 7.4.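 Note: kinetics fitted with a 1:1 Langmuir model, association 200 s and dissociation 600 s in PBST, double-referenced against buffer-only and interspot signals, values averaged over repeated runs.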
Description: as §1, §2

T2 sequence (P55899 24-365 limits assumed, chain 1 of 2): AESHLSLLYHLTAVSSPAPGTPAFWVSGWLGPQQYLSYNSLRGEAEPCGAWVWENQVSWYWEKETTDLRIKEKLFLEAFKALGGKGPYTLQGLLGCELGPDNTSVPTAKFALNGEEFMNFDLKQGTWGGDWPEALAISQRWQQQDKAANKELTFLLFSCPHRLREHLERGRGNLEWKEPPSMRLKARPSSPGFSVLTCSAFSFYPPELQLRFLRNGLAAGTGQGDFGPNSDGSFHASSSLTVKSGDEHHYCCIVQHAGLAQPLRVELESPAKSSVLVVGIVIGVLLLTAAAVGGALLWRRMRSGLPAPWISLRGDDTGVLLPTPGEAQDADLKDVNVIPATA
T2 sequence (P61769 21-119 limits assumed, chain 2 of 2): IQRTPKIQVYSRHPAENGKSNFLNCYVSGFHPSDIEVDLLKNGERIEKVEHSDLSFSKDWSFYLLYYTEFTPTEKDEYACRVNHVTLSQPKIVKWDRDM
T1 sequence (P55899 24-297 limits assumed, chain 1 of 2): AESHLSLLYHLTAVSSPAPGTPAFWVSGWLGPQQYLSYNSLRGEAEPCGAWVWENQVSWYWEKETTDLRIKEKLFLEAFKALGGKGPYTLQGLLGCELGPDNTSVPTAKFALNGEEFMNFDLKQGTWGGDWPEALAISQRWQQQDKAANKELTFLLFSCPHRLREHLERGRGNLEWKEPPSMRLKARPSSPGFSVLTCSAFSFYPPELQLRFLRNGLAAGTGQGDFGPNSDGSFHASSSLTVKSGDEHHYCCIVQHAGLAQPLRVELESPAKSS
T1 sequence (P61769 21-119 limits assumed, chain 2 of 2): as the sequence (P61769 21-119 limits assumed, chain 2 of 2) above

B1: HL161AN variant No. 1 (LC:N25S, HC:C32S) (antibody, V domains shown)
VL: SYVLTQPPSVSVAPGQTARITCGGSNIGSTSVHWYQQKPGQAPVLVVHDDSDRPSGIPERFSGSNSGNTATLTISRVEAGDEADYYCQVRDSSSDHVIFGGGTKLTVLGQPKAAPSVTL
VH: EVQLLESGGGLVQPGGSLRLSCAASEFTFGSSVMTWVRQAPGKGLEWVSVISGSGGSTYYADSVKGRFTISRDNSKNTLYLQMNSLRAEDTAVYYCAKTPWWLRSPFFDYWGQGTLVTVSS
notes: also called HL161ANS; #1 (HL161ANS)
B1: the Kd in [1] came to 0.12 nM; in assay [2], 0.129 nM; in [9], 0.12 nM; in [10], 0.122 nM. Also, the koff came to 0.000463 s⁻¹ in [2] and 0.000392 s⁻¹ in assay [10]. Also, the on-rate (kon) in assay [2] was 3.58e+06 M⁻¹ s⁻¹; in [10], 3.22e+06 M⁻¹ s⁻¹. The concentration giving a half-maximal response (EC50) in assay [3] is 1.44 nM; in [6], 0.69 nM. Besides, the MFI in [4] came to 6460 MFI; in [5], 3270 MFI; in assay [7], 6730 MFI; in assay [8], 2720 MFI.

B2: HL161AN variant No. 11 (LC:N25S, HC:C32Y Q82E) (antibody, V domains shown)
VL: SYVLTQPPSVSVAPGQTARITCGGSNIGSTSVHWYQQKPGQAPVLVVHDDSDRPSGIPERFSGSNSGNTATLTISRVEAGDEADYYCQVRDSSSDHVIFGGGTKLTVLGQPKAAPSVTL
VH: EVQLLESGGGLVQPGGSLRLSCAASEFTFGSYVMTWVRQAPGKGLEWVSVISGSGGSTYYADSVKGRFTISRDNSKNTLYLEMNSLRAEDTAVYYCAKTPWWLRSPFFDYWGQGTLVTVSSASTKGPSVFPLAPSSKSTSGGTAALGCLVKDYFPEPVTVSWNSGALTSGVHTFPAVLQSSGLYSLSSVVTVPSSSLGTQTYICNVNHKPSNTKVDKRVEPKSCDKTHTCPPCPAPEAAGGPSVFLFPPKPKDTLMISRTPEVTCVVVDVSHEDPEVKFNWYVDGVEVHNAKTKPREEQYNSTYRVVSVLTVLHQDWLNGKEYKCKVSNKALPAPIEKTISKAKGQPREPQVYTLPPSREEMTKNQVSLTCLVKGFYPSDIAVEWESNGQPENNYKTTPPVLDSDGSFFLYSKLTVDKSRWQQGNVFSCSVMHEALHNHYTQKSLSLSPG
notes: also called HL161ANSYE; copies: 2 + 2
Take B2: the Kd in assay [1] amounted to 0.14 nM; in assay [2], 0.19 nM; in assay [9] it was 0.28 nM; in assay [10], 0.262 nM. Besides, the koff in [2] stood at 0.000486 s⁻¹; in [10], 0.000487 s⁻¹. Further, the kon is 2.56e+06 M⁻¹ s⁻¹ in assay [2] and 1.86e+06 M⁻¹ s⁻¹ in assay [10]. For the same molecule, the EC50 in assay [3] amounted to 1.36 nM; in [6], 0.62 nM. Moreover, the MFI in [4] worked out at 6320 MFI; in assay [5], 3450 MFI; in assay [7] it was 6570 MFI; in [8] it was 2580 MFI.

B3: HL161AN variant No. 19 (LC:N25Q, HC:C32S Q82E) (antibody, V domains shown)
VL: SYVLTQPPSVSVAPGQTARITCGGQNIGSTSVHWYQQKPGQAPVLVVHDDSDRPSGIPERFSGSNSGNTATLTISRVEAGDEADYYCQVRDSSSDHVIFGGGTKLTVLGQPKAAPSVTL
VH: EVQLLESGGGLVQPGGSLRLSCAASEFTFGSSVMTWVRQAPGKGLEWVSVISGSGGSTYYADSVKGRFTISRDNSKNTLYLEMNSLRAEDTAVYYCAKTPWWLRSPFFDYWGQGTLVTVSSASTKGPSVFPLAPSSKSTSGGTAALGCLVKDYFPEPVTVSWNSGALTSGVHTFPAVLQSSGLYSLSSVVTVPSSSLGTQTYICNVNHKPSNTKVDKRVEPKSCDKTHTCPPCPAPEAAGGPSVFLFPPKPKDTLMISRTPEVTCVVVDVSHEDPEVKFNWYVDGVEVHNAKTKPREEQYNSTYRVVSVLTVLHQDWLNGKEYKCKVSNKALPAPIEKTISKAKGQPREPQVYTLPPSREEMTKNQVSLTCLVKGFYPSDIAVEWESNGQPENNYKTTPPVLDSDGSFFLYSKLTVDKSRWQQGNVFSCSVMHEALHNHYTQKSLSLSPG
notes: also called HL161ANQE; copies: 2 + 2
Regarding B3, the Kd in assay [1] came out at 0.32 nM; in [2] it was 0.275 nM; in assay [9] it was 0.36 nM. This molecule had a koff in assay [2] of 0.000575 s⁻¹. The kon in assay [2] was determined as 2.09e+06 M⁻¹ s⁻¹. Further, the results for the 50% effective concentration (EC50) in [3] and in assay [6] were 1.14 nM and 0.62 nM, respectively. Also, the MFI in assay [4] came to 6470 MFI; in [5], 3240 MFI; in [7], 7910 MFI; in assay [8] it was 2640 MFI.

B4: HL161AN variant No. 2 (LC:N25S, HC:C32Y) (antibody, V domains shown)
VL: SYVLTQPPSVSVAPGQTARITCGGSNIGSTSVHWYQQKPGQAPVLVVHDDSDRPSGIPERFSGSNSGNTATLTISRVEAGDEADYYCQVRDSSSDHVIFGGGTKLTVLGQPKAAPSVTL
VH: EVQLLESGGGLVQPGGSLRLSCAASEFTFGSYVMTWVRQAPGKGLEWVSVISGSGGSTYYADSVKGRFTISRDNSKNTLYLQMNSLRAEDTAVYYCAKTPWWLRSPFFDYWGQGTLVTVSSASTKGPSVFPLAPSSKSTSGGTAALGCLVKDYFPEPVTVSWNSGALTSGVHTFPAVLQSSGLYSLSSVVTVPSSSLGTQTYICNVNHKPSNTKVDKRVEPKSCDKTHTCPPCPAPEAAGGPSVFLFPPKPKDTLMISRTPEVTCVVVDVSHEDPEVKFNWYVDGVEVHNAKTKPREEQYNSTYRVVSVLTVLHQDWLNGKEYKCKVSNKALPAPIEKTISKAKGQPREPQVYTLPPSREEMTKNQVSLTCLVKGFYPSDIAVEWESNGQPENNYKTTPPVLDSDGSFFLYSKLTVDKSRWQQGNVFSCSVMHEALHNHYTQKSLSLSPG
notes: also called HL161ANSY; copies: 2 + 2
Consider B4, for which the Kd in assay [1] was 0.1 nM; in assay [2] it was 0.149 nM; in assay [9] it was 0.2 nM; in [10] it was 0.207 nM. Moreover, the values for the koff in [2] and in assay [10] were 0.000433 s⁻¹ and 0.000435 s⁻¹, respectively. For the same molecule, the results for the kon in assay [2] and in assay [10] were 2.91e+06 M⁻¹ s⁻¹ and 2.1e+06 M⁻¹ s⁻¹, respectively. Further, the results for the EC50 in [3] and in assay [6] were 1.27 nM and 0.54 nM, respectively. Moreover, the MFI worked out at 6200 MFI in [4], 3410 MFI in assay [5], 7000 MFI in [7] and 2500 MFI in assay [8].

B5: HL161AN variant No. 8 (LC:N25S, HC:C32S Q82E) (antibody, V domains shown)
VL: SYVLTQPPSVSVAPGQTARITCGGSNIGSTSVHWYQQKPGQAPVLVVHDDSDRPSGIPERFSGSNSGNTATLTISRVEAGDEADYYCQVRDSSSDHVIFGGGTKLTVLGQPKAAPSVTL
VH: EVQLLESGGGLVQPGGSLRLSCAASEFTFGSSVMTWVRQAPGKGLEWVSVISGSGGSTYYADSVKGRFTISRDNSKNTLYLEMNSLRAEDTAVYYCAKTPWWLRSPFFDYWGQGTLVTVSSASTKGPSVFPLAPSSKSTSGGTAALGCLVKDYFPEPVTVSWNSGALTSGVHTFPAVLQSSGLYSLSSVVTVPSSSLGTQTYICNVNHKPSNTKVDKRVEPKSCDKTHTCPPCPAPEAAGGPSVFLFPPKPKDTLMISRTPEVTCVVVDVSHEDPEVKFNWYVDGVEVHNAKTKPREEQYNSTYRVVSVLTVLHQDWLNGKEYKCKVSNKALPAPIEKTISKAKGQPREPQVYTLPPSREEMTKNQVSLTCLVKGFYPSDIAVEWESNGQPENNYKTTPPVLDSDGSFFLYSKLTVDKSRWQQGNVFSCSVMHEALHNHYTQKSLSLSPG
notes: also called HL161ANSE; copies: 2 + 2
B5: the dissociation constant Kd in assay [1] was determined as 0.14 nM; in assay [2] it was 0.158 nM; in [9], 0.28 nM; in assay [10], 0.218 nM. Also, the dissociation rate constant (koff) was 0.000477 s⁻¹ in assay [2] and 0.000496 s⁻¹ in [10]. Moreover, the values for the kon in [2] and in assay [10] were 3.02e+06 M⁻¹ s⁻¹ and 2.27e+06 M⁻¹ s⁻¹, respectively. Further, the EC50 in assay [3] is 1.47 nM; in [6] it was 0.6 nM. For the same molecule, the MFI in assay [4] worked out at 6760 MFI; in assay [5], 3130 MFI; in [7] it was 7060 MFI; in [8], 2830 MFI.

B6: HL161AN variant No. 22 (LC:N25Q, HC:C32Y Q82E) (antibody, V domains shown)
VL: SYVLTQPPSVSVAPGQTARITCGGQNIGSTSVHWYQQKPGQAPVLVVHDDSDRPSGIPERFSGSNSGNTATLTISRVEAGDEADYYCQVRDSSSDHVIFGGGTKLTVLGQPKAAPSVTL
VH: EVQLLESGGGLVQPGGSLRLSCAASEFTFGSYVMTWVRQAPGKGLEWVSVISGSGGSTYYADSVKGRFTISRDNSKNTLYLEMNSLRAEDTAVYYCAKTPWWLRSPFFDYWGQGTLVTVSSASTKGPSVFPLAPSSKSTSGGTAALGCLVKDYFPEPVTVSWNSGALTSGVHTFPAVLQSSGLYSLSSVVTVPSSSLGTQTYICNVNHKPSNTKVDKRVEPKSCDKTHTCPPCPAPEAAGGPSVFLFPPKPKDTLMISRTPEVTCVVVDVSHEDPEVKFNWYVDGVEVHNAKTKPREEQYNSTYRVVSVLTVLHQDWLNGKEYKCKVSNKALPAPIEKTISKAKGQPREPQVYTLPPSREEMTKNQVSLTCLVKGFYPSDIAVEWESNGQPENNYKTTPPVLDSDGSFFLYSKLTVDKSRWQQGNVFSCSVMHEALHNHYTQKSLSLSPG
notes: also called HL161ANQYE; copies: 2 + 2
As for B6, the Kd in assay [1] worked out at 0.21 nM; in [2], 0.264 nM; in assay [9] it was 0.3 nM; in assay [10], 0.381 nM. For the same molecule, the koff in assay [2] stood at 0.000522 s⁻¹; in [10], 0.000647 s⁻¹. For the same molecule, the results for the kon in assay [2] and in [10] were 1.98e+06 M⁻¹ s⁻¹ and 1.7e+06 M⁻¹ s⁻¹, respectively. The results for the EC50 in assay [3] and in assay [6] were 1.3 nM and 0.71 nM, respectively. The MFI in assay [4] stood at 5860 MFI; in assay [5], 3020 MFI; in [7] it was 7080 MFI; in assay [8] it was 2390 MFI.

B7: HL161AN variant No. 12 (LC:N25Q, HC:C32S) (antibody, V domains shown)
VL: SYVLTQPPSVSVAPGQTARITCGGQNIGSTSVHWYQQKPGQAPVLVVHDDSDRPSGIPERFSGSNSGNTATLTISRVEAGDEADYYCQVRDSSSDHVIFGGGTKLTVLGQPKAAPSVTL
VH: EVQLLESGGGLVQPGGSLRLSCAASEFTFGSSVMTWVRQAPGKGLEWVSVISGSGGSTYYADSVKGRFTISRDNSKNTLYLQMNSLRAEDTAVYYCAKTPWWLRSPFFDYWGQGTLVTVSS
notes: also called HL161ANQ; #12 (HL161ANQ)
For B7, the Kd in [1] was 0.18 nM; in assay [2], 0.181 nM; in [9], 0.21 nM; in assay [10], 0.209 nM. In addition, the figures for the koff in [2] and in assay [10] were 0.000549 s⁻¹ and 0.000499 s⁻¹, respectively. The kon is 3.02e+06 M⁻¹ s⁻¹ in assay [2] and 2.38e+06 M⁻¹ s⁻¹ in assay [10]. Moreover, the EC50 in [3] is 1.65 nM; in [6] it was 0.69 nM. Moreover, the MFI in assay [4] came out at 6940 MFI; in [5], 3390 MFI; in assay [7], 7700 MFI; in assay [8], 2770 MFI.

B8: HL161AN variant No. 13 (LC:N25Q, HC:C32Y) (antibody, V domains shown)
VL: SYVLTQPPSVSVAPGQTARITCGGQNIGSTSVHWYQQKPGQAPVLVVHDDSDRPSGIPERFSGSNSGNTATLTISRVEAGDEADYYCQVRDSSSDHVIFGGGTKLTVLGQPKAAPSVTL
VH: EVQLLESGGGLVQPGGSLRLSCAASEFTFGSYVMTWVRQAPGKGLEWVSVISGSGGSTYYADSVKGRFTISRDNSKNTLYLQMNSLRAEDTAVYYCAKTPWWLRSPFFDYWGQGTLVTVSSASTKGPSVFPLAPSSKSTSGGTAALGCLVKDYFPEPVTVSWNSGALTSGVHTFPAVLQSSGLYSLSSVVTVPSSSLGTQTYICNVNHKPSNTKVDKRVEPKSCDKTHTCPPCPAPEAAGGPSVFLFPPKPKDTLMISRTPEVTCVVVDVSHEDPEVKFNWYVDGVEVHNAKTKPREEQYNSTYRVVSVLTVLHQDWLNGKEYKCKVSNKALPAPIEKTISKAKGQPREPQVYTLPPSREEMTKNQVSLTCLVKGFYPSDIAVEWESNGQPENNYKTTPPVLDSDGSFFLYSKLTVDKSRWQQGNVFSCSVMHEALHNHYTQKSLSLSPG
notes: also called HL161ANQY; copies: 2 + 2
As for B8, the Kd was 0.21 nM in [1], 0.2 nM in [2], 0.32 nM in assay [9] and 0.236 nM in assay [10]. The koff in assay [2] came out at 0.000556 s⁻¹; in [10] it was 0.000444 s⁻¹. The kon was 2.77e+06 M⁻¹ s⁻¹ in assay [2] and 1.88e+06 M⁻¹ s⁻¹ in assay [10]. Besides, the EC50 in assay [3] was 1.38 nM; in assay [6], 0.66 nM. For the same molecule, the MFI in assay [4] stood at 6730 MFI; in assay [5] it was 3330 MFI; in assay [7], 7940 MFI; in assay [8], 2600 MFI.

Broadly, the Kd is a measure of binding affinity in units of concentration. Low readings indicate a tighter complex, high ones a looser complex. As a reminder, the koff is a measure of how fast the partners let go of each other. High values mean a short-lived complex, low ones a long-lived complex. By kon is commonly meant the second-order rate constant of association. A higher kon goes with fast association. Usually EC50 stands for the concentration that produces a half-maximal response.
